In US20230357348A1 (AstraZeneca / MedImmune, published 2023):
Starred links: 1 amine or outer side, 2 acyl side, 3 side chain; linkers in the order of their positions; H or OH if unused. Non-standard residues stand in square brackets, D forms with d. Groups on a side chain read outwards from the residue. No end group written: not given here. *: point of attachment. C20 diacid = O=C(O)CCCCCCCCCCCCCCCCCCC(=O)*; C18 diacid = O=C(O)CCCCCCCCCCCCCCCCC(=O)*; Dip = N[C@H](C(=O)O)C(c1ccccc1)c1ccccc1; γGlu = O=C(O)[C@H](CCC(=O)[*:2])N[*:1]; Stearoyl = CCCCCCCCCCCCCCCCCC(=O)*; αMeF = C[C@](N)(Cc1ccccc1)C(=O)O; (PEG)2 = polyethylene glycol 2; AEEA = NCCOCCOCC(=O)O; Aib = CC(C)(N)C(=O)O

B1: Peptide 153 (peptide)
peptide: H[Aib]QGTFTSDVSK[αMeF]LDSK([AEEA-AEEA-γGlu-C20 diacid])RAQDFVRWLL[Aib]E-OH
modifications: N-terminus assumed
SMILES: CC(C)C[C@H](NC(=O)[C@H](Cc1c[nH]c2ccccc12)NC(=O)[C@H](CCCNC(=N)N)NC(=O)[C@@H](NC(=O)[C@H](Cc1ccccc1)NC(=O)[C@H](CC(=O)O)NC(=O)[C@H](CCC(N)=O)NC(=O)[C@H](C)NC(=O)[C@H](CCCNC(=N)N)NC(=O)[C@H](CCCCNC(=O)COCCOCCNC(=O)COCCOCCNC(=O)CC[C@H](NC(=O)CCCCCCCCCCCCCCCCCCC(=O)O)C(=O)O)NC(=O)[C@H](CO)NC(=O)[C@H](CC(=O)O)NC(=O)[C@H](CC(C)C)NC(=O)[C@](C)(Cc1ccccc1)NC(=O)[C@H](CCCCN)NC(=O)[C@H](CO)NC(=O)[C@@H](NC(=O)[C@H](CC(=O)O)NC(=O)[C@H](CO)NC(=O)[C@@H](NC(=O)[C@H](Cc1ccccc1)NC(=O)[C@@H](NC(=O)CNC(=O)[C@H](CCC(N)=O)NC(=O)C(C)(C)NC(=O)[C@@H](N)Cc1c[nH]cn1)[C@@H](C)O)[C@@H](C)O)C(C)C)C(C)C)C(=O)N[C@@H](CC(C)C)C(=O)NC(C)(C)C(=O)N[C@@H](CCC(=O)O)C(=O)O
B2: Peptide 5 (peptide)
peptide: H[Aib]QGS[αMeF]TSDVSK[αMeF]LDSK([AEEA-AEEA-γGlu-γGlu-C18 diacid])AAQD[αMeF]VQ[Aib]IAN-NH2
modifications: N-terminus assumed
SMILES: CC[C@H](C)[C@H](NC(=O)C(C)(C)NC(=O)[C@H](CCC(N)=O)NC(=O)[C@@H](NC(=O)[C@](C)(Cc1ccccc1)NC(=O)[C@H](CC(=O)O)NC(=O)[C@H](CCC(N)=O)NC(=O)[C@H](C)NC(=O)[C@H](C)NC(=O)[C@H](CCCCNC(=O)COCCOCCNC(=O)COCCOCCNC(=O)CC[C@H](NC(=O)CC[C@H](NC(=O)CCCCCCCCCCCCCCCCC(=O)O)C(=O)O)C(=O)O)NC(=O)[C@H](CO)NC(=O)[C@H](CC(=O)O)NC(=O)[C@H](CC(C)C)NC(=O)[C@](C)(Cc1ccccc1)NC(=O)[C@H](CCCCN)NC(=O)[C@H](CO)NC(=O)[C@@H](NC(=O)[C@H](CC(=O)O)NC(=O)[C@H](CO)NC(=O)[C@@H](NC(=O)[C@](C)(Cc1ccccc1)NC(=O)[C@H](CO)NC(=O)CNC(=O)[C@H](CCC(N)=O)NC(=O)C(C)(C)NC(=O)[C@@H](N)Cc1c[nH]cn1)[C@@H](C)O)C(C)C)C(C)C)C(=O)N[C@@H](C)C(=O)N[C@@H](CC(N)=O)C(N)=O
B3: Peptide 150 (peptide)
peptide: H[Aib]QGTFTSDVSK[αMeF]LDSK([AEEA-AEEA-γGlu-C18 diacid])RAQDFVQWLL[Aib]TE-OH
modifications: N-terminus assumed
SMILES: CC(C)C[C@H](NC(=O)[C@H](Cc1c[nH]c2ccccc12)NC(=O)[C@H](CCC(N)=O)NC(=O)[C@@H](NC(=O)[C@H](Cc1ccccc1)NC(=O)[C@H](CC(=O)O)NC(=O)[C@H](CCC(N)=O)NC(=O)[C@H](C)NC(=O)[C@H](CCCNC(=N)N)NC(=O)[C@H](CCCCNC(=O)COCCOCCNC(=O)COCCOCCNC(=O)CC[C@H](NC(=O)CCCCCCCCCCCCCCCCC(=O)O)C(=O)O)NC(=O)[C@H](CO)NC(=O)[C@H](CC(=O)O)NC(=O)[C@H](CC(C)C)NC(=O)[C@](C)(Cc1ccccc1)NC(=O)[C@H](CCCCN)NC(=O)[C@H](CO)NC(=O)[C@@H](NC(=O)[C@H](CC(=O)O)NC(=O)[C@H](CO)NC(=O)[C@@H](NC(=O)[C@H](Cc1ccccc1)NC(=O)[C@@H](NC(=O)CNC(=O)[C@H](CCC(N)=O)NC(=O)C(C)(C)NC(=O)[C@@H](N)Cc1c[nH]cn1)[C@@H](C)O)[C@@H](C)O)C(C)C)C(C)C)C(=O)N[C@@H](CC(C)C)C(=O)NC(C)(C)C(=O)N[C@H](C(=O)N[C@@H](CCC(=O)O)C(=O)O)[C@@H](C)O
B4: Peptide 152 (peptide)
peptide: H[Aib]QGTFTSDVSK[αMeF]LDSK([AEEA-AEEA-γGlu-C18 diacid])RAQDFVRWLL[Aib]E-OH
modifications: N-terminus assumed
SMILES: CC(C)C[C@H](NC(=O)[C@H](Cc1c[nH]c2ccccc12)NC(=O)[C@H](CCCNC(=N)N)NC(=O)[C@@H](NC(=O)[C@H](Cc1ccccc1)NC(=O)[C@H](CC(=O)O)NC(=O)[C@H](CCC(N)=O)NC(=O)[C@H](C)NC(=O)[C@H](CCCNC(=N)N)NC(=O)[C@H](CCCCNC(=O)COCCOCCNC(=O)COCCOCCNC(=O)CC[C@H](NC(=O)CCCCCCCCCCCCCCCCC(=O)O)C(=O)O)NC(=O)[C@H](CO)NC(=O)[C@H](CC(=O)O)NC(=O)[C@H](CC(C)C)NC(=O)[C@](C)(Cc1ccccc1)NC(=O)[C@H](CCCCN)NC(=O)[C@H](CO)NC(=O)[C@@H](NC(=O)[C@H](CC(=O)O)NC(=O)[C@H](CO)NC(=O)[C@@H](NC(=O)[C@H](Cc1ccccc1)NC(=O)[C@@H](NC(=O)CNC(=O)[C@H](CCC(N)=O)NC(=O)C(C)(C)NC(=O)[C@@H](N)Cc1c[nH]cn1)[C@@H](C)O)[C@@H](C)O)C(C)C)C(C)C)C(=O)N[C@@H](CC(C)C)C(=O)NC(C)(C)C(=O)N[C@@H](CCC(=O)O)C(=O)O
B5: Peptide 151 (peptide)
peptide: H[Aib]QGTFTSDVSK[αMeF]LDSK([AEEA-AEEA-γGlu-C20 diacid])RAQDFVRWLL[Aib]TE-OH
modifications: N-terminus assumed
SMILES: CC(C)C[C@H](NC(=O)[C@H](Cc1c[nH]c2ccccc12)NC(=O)[C@H](CCCNC(=N)N)NC(=O)[C@@H](NC(=O)[C@H](Cc1ccccc1)NC(=O)[C@H](CC(=O)O)NC(=O)[C@H](CCC(N)=O)NC(=O)[C@H](C)NC(=O)[C@H](CCCNC(=N)N)NC(=O)[C@H](CCCCNC(=O)COCCOCCNC(=O)COCCOCCNC(=O)CC[C@H](NC(=O)CCCCCCCCCCCCCCCCCCC(=O)O)C(=O)O)NC(=O)[C@H](CO)NC(=O)[C@H](CC(=O)O)NC(=O)[C@H](CC(C)C)NC(=O)[C@](C)(Cc1ccccc1)NC(=O)[C@H](CCCCN)NC(=O)[C@H](CO)NC(=O)[C@@H](NC(=O)[C@H](CC(=O)O)NC(=O)[C@H](CO)NC(=O)[C@@H](NC(=O)[C@H](Cc1ccccc1)NC(=O)[C@@H](NC(=O)CNC(=O)[C@H](CCC(N)=O)NC(=O)C(C)(C)NC(=O)[C@@H](N)Cc1c[nH]cn1)[C@@H](C)O)[C@@H](C)O)C(C)C)C(C)C)C(=O)N[C@@H](CC(C)C)C(=O)NC(C)(C)C(=O)N[C@H](C(=O)N[C@@H](CCC(=O)O)C(=O)O)[C@@H](C)O
B6: Peptide 166 (peptide)
peptide: H[Aib]QGTFTSDVSK[αMeF]LDSK([AEEA-AEEA-γGlu-C18 diacid])RARDFVRWLL[Aib]TE-OH
modifications: N-terminus assumed
SMILES: CC(C)C[C@H](NC(=O)[C@H](Cc1c[nH]c2ccccc12)NC(=O)[C@H](CCCNC(=N)N)NC(=O)[C@@H](NC(=O)[C@H](Cc1ccccc1)NC(=O)[C@H](CC(=O)O)NC(=O)[C@H](CCCNC(=N)N)NC(=O)[C@H](C)NC(=O)[C@H](CCCNC(=N)N)NC(=O)[C@H](CCCCNC(=O)COCCOCCNC(=O)COCCOCCNC(=O)CC[C@H](NC(=O)CCCCCCCCCCCCCCCCC(=O)O)C(=O)O)NC(=O)[C@H](CO)NC(=O)[C@H](CC(=O)O)NC(=O)[C@H](CC(C)C)NC(=O)[C@](C)(Cc1ccccc1)NC(=O)[C@H](CCCCN)NC(=O)[C@H](CO)NC(=O)[C@@H](NC(=O)[C@H](CC(=O)O)NC(=O)[C@H](CO)NC(=O)[C@@H](NC(=O)[C@H](Cc1ccccc1)NC(=O)[C@@H](NC(=O)CNC(=O)[C@H](CCC(N)=O)NC(=O)C(C)(C)NC(=O)[C@@H](N)Cc1c[nH]cn1)[C@@H](C)O)[C@@H](C)O)C(C)C)C(C)C)C(=O)N[C@@H](CC(C)C)C(=O)NC(C)(C)C(=O)N[C@H](C(=O)N[C@@H](CCC(=O)O)C(=O)O)[C@@H](C)O
B7: Peptide 6 (peptide)
peptide: H[Aib]HGS[αMeF]TSDVSK[αMeF]LDSK([AEEA-AEEA-γGlu-C18 diacid])AAQD[αMeF]VEWIAN-NH2
modifications: N-terminus assumed
SMILES: CC[C@H](C)[C@H](NC(=O)[C@H](Cc1c[nH]c2ccccc12)NC(=O)[C@H](CCC(=O)O)NC(=O)[C@@H](NC(=O)[C@](C)(Cc1ccccc1)NC(=O)[C@H](CC(=O)O)NC(=O)[C@H](CCC(N)=O)NC(=O)[C@H](C)NC(=O)[C@H](C)NC(=O)[C@H](CCCCNC(=O)COCCOCCNC(=O)COCCOCCNC(=O)CC[C@H](NC(=O)CCCCCCCCCCCCCCCCC(=O)O)C(=O)O)NC(=O)[C@H](CO)NC(=O)[C@H](CC(=O)O)NC(=O)[C@H](CC(C)C)NC(=O)[C@](C)(Cc1ccccc1)NC(=O)[C@H](CCCCN)NC(=O)[C@H](CO)NC(=O)[C@@H](NC(=O)[C@H](CC(=O)O)NC(=O)[C@H](CO)NC(=O)[C@@H](NC(=O)[C@](C)(Cc1ccccc1)NC(=O)[C@H](CO)NC(=O)CNC(=O)[C@H](Cc1c[nH]cn1)NC(=O)C(C)(C)NC(=O)[C@@H](N)Cc1c[nH]cn1)[C@@H](C)O)C(C)C)C(C)C)C(=O)N[C@@H](C)C(=O)N[C@@H](CC(N)=O)C(N)=O

Target: human GLP-1 receptor (hGLP-1R) (human, UniProt P43220 24-463)
Assay: cell-based or functional assay

Row | hGLP-1R EC50 (pM) | Binder
1 | 41.2 pM | B1
2 | 283 pM | B2
3 | 166 pM | B3
4 | 11.9 pM | B4
5 | 111 pM | B5
6 | 48 pM | B6
7 | 18.8 pM | HSQGS[αMeF]TSDVSK[Dip]LDSK([(PEG)2-(PEG)2-γGlu-γGlu-Stearoyl])AAQD[αMeF]VQ[Dip]LEA-NH2 [Peptide 55]
8 | 568 pM | B7

Target: human glucagon receptor (hGCGR) (human, UniProt P47871 26-477)
Assay: cell-based or functional assay

Sequence of human glucagon receptor (hGCGR) (P47871 26-477): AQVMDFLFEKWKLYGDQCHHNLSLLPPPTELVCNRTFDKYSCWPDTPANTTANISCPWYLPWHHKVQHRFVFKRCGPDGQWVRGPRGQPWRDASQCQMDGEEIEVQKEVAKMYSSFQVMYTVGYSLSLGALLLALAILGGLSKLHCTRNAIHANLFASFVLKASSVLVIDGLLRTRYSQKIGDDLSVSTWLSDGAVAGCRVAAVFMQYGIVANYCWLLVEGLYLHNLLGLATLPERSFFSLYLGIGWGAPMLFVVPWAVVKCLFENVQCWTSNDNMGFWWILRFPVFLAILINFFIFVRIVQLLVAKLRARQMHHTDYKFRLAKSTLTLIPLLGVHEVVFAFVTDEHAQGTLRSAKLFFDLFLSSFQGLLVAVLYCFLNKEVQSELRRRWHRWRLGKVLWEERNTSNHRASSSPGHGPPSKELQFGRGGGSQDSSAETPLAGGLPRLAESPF

Row | hGluc-R EC50 (pM) | Binder
9 | 99 pM | B1
10 | 7140 pM | B2
11 | 355 pM | B3
12 | 20.4 pM | B4
13 | 178 pM | B5
14 | 270 pM | B6
15 | 19.1 pM | HSQGS[αMeF]TSDVSK[Dip]LDSK([(PEG)2-(PEG)2-γGlu-γGlu-Stearoyl])AAQD[αMeF]VQ[Dip]LEA-NH2 [Peptide 55]
16 | 516 pM | B7
